Test results taken from patent US8722622B2, “FGF21 conjugates and anti-diabetic uses thereof” (COVX Technologies Ireland, Limited, priority 2010, dated 2014).

Experiments:
[1] = Intrinsic tryptophan fluorescence thermal unfolding; type: physicochemical
Text: Thermal stability of the two candidates was also investigated using intrinsic protein tryptophan fluorescence by measuring midpoint of transition (Tm-FL) of temperature-induced unfolding. This assay monitors changes in tertiary structure semi-quantitatively upon unfolding induced by high temperature.

[2] = Differential scanning calorimetry (DSC); type: physicochemical; settings: temperature-induced unfolding
Procedure: Thermal stability of the two candidates was investigated using DSC by measuring midpoint of transition (Tm) of temperature-induced unfolding. The Tm value of the major unfolding transition for h38C2 was 73.5° C.

[3] = tested on: Glut1 mRNA expression in differentiated 3T3-L1 adipocytes; test: Glut1 Taqman assay; type: cell-based; settings: differentiated 3T3-L1 adipocytes, 6 hrs; read-out: EC50 in Glut1 Taqman assay
Procedure: Differentiated 3T3-L1 adipocytes were used to measure the Glut1 mRNA expression by qPCR method. Overnight serum starved day 10-14 differentiated 3T3-L1 adipocytes were treated with compounds for 6 hrs. Total RNA was extracted from these cells, and Glut1 and GAPDH mRNA expression was measured using a Quantitect Probe RT-PCR kit and running a quantitative real time PCR reaction in a Taqman machine (Applied Biosystems®). The bioactivity of the compounds was determined by a fold change in Glut1 mRNA levels normalized by the GAPDH mRNA levels from each sample. EC50 values as measurements of the potency of the compounds were obtained from the dose response curves in the assay.
3T3-L1 adipocytes were seeded at day 8 in 24-well tissue culture plates (Falcon®, Cat#353047), and incubated in DMEM complete medium (10% FBS, 2 mM L-glutamine, 1% P/S) at 37° C., 5% CO2. […] The medium was aspirated, and then RNA extracted from the cells using the RNeasy mini Kit according to the manufacturer's instructions. RNA was measured at A260 nm using the Spectramax® Plus spectrophotometer.

ob/ob mice = test: Mouse efficacy in ob/ob mice (OGTT, body weight, liver, gene expression); type: in vivo; settings: ob/ob mice; for mean glucose AUC % during OGTT: single dose 10 mg/ml as printed (FIG. 6B)
Procedure: The efficacy of FGF21 antibodies conjugates was evaluated in two murine obese insulin resistant models—ob/ob mice and high-fat diet-induced obese mice. For both models, male mice (6-8 weeks of age for ob/ob, 12-14 weeks of age for DIO with high-fat diet initiated at 6 weeks of age) were housed 2-4/cage and FGF21 antibody conjugates were administered by SC injection. Body weight was measured daily in the morning. Glucose tolerance was assessed by oral glucose tolerance test. Briefly, mice were fasted for 4-5 hrs in the morning of the day of testing. A basal blood sample was obtained and blood glucose levels were determined using a portable glucometer. Following basal sample, glucose was administered by oral gavage, and blood samples were drawn from 15 to 120 mins thereafter.
For […] expression, frozen visceral WAT samples collected from the in vivo efficacy studies were homogenized. Total RNA was extracted from the tissue homogenates, and Glut1 and GAPDH mRNA expression was measured using a Quantitect Probe RT-PCR kit and running a quantitative real time PCR reaction in a Taqman machine (Applied Biosystems). The effect of treatment was determined by a fold change in Glut1 mRNA levels normalized by the GAPDH mRNA levels from each sample.

[4] = parameters: species or system Swiss-Webster mice; settings: mouse, in vivo, sc
Procedure: The PK of FGF21 antibody conjugates were examined in mice after IV or SC administration. […] Antibody conjugates concentrations in serum were determined using an ELISA which captured the FGF21 portion of the antibody conjugates through a monoclonal anti-hFGF21 antibody bound to a 96-well plate. FGF21 antibody conjugates bound to the plate were detected through an anti-hFc monoclonal antibody, and concentrations were determined using a standard curve of the PK dosing solution diluted into serum-containing assay buffer. SC bioavailability was calculated as the ratio of the area-under the curve (AUC) of the SC serum concentration profile divided by the AUC of the IV serum concentration profile.

[5] = tested on: Differentiated 3T3-L1 adipocytes; test: Glucose uptake assay; type: cell-based
Procedure: Differentiated 3T3-L1 adipocytes were treated with compounds in the absence of serum for 24 hrs. Cells were then incubated with ^14C-2-deoxyglucose for 1 hr and glucose uptake into the cells was quantitated in Wallac 1450 MicroBeta (Trilux) instrument. Glucose uptake was expressed in counts per min (CPM). EC50 values as measurements of the potency of the compounds were obtained from the dose response curves in the assay.

[6] = type: physicochemical
Procedure: FGF21ΔH-D79C mutant protein was produced in E. coli and purified as described above. FGF21ΔH-D79C was expressed from 1 L of culture. A 150 mg inclusion body was obtained and 85 mg purified protein was obtained, representing a 60% yield. To test the stability of FGF21ΔH-D79C as well as FGF21ΔH (SEQ ID NO:2), freshly thawed samples were kept at 4° C. over seven days, and examined for their integrity by RP-HPLC, SEC_HPLC, Ellman assay and SDS-PAGE on day 0, 3 and 7. […] PBS (pH7.4) and 20 mM Tris-HCl 50 mM NaCl (pH7.5) made no significant difference of stability of FGF21ΔH-D79C.
It is possible that the solubility of FGF21ΔH-D79C may be reduced at pH6.0. The stability of FGF21ΔH-D79C was examined upon multiple freeze/thaw cycles. The proteins were repeated to freeze (−80 C) and thaw (4° C.) 9 times.

h38C2: humanized aldolase catalytic antibody h38C2 IgG1, SEQ ID NOS:25 and 26
Tm-FL of the major unfolding transition [1]: approximately 74.1 °C
Tm of the major unfolding transition (DSC) [2]: 73.5 °C

B1: Ab-L1-FGF21ΔH-H125C: FGF21ΔH-H125C combined with L1 at H125C and conjugated with h38C2 (conjugate, listed as Homo sapiens)
chain: PIPDSSPLLQFGGQVRQRYLYTDDAQQTEAHLEIREDGTVGGAADQSPESLLQLKALKPGVIQILGVKTSRFLCQRPDGALYGSLHFDPEACSFRELLLEDGYNVYQSEAHGLPLHLPGNKSPHRDPCPRGPARFLPLPGLPPALPEPPGILAPQPPDVGSSDPLSMVGPSQGRSPSYAS
modifications: conjugated via L1 linker to h38C2 antibody
EC50 [3]: 3.2 nM
body weight gain (ob/ob mice): reduce body weight gain
glucose tolerance (ob/ob mice): improve glucose tolerance
Mean Glucose AUC (% of vehicle control) during OGTT (ob/ob mice; single SC dose 1 mg/kg (FIGS. 4A, 4B)): 87 % of vehicle control
Mean Glucose AUC (% of vehicle control) during OGTT (ob/ob mice; single SC dose 3 mg/kg (FIGS. 4A, 4B)): 66 % of vehicle control
Cumulative body weight change, mean body weight (ob/ob mice; single dose 10 mg/kg (FIG. 6A)): 0.8 g
mean glucose AUC % during OGTT (ob/ob mice): 51%
Tm-FL of the major unfolding transition [1]: ~79.7 °C
Tm of the major unfolding transition (DSC) [2]: 79 °C
SC bioavailability [4]: 67%

B2: FGF21ΔH-K56-K59R-K69R-K122: FGF21 lysine mutant, SEQ ID NO:21 (protein, listed as Homo sapiens)
chain: PIPDSSPLLQFGGQVRQRYLYTDDAQQTEAHLEIREDGTVGGAADQSPESLLQLRALRPGVIQILGVRTSRFLCQRPDGALYGSLHFDPEACSFRELLLEDGYNVYQSEAHGLPLHLPGNKSPHRDPAPRGPARFLPLPGLPPAPLEPPGILAPQPPDVGSSDPLSMVGPSQGRSPSYAS
EC50 ([5]; 3T3-L1 adipocytes, 24 hrs): 1.7 nM
EC50 [3]: 2.6 nM

B3: FGF21ΔH-D79C: FGF21 cysteine mutant, SEQ ID NO:13 (protein, listed as Homo sapiens)
chain: PIPDSSPLLQFGGQVRQRYLYTDDAQQTEAHLEIREDGTVGGAADQSPESLLQLKALKPGVIQILGVKTSRFLCQRPCGALYGSLHFDPEACSFRELLLEDGYNVYQSEAHGLPLHLPGNKSPHRDPAPRGPARFLPLPGLPPALPEPPGILAPQPPDVGSSDPLSMVGPSQGRSPSYAS
EC50 [3]: 2.1 nM
stability upon freeze/thaw cycles [6]: Neither sample showed any difference
fraction oxidized at pH 6.0 ([6]; 4° C., three-day incubation): more than half
stability at neutral pH 7.4 ([6]; pH 7.4): stable
Cumulative body weight change, mean body weight (ob/ob mice; single dose 2 mg/kg (FIG. 6A)): 2.1 g
mean glucose AUC % during OGTT (ob/ob mice): 54%

B4: FGF21ΔH-K56-K59R-K69R-K122R: FGF21 lysine mutant, SEQ ID NO:18 (protein, listed as Homo sapiens)
chain: PIPDSSPLLQFGGQVRQRYLYTDDAQQTEAHLEIREDGTVGGAADQSPESLLQLKALRPGVIQILGVRTSRFLCQRPDGALYGSLHFDPEACSFRELLLEDGYNVYQSEAHGLPLHLPGNRSPHRDPAPRGPARFLPLPGLPPAPLEPPGILAPQPPDVGSSDPLSMVGPSQGRSPSYAS
EC50 ([5]; 3T3-L1 adipocytes, 24 hrs): 5.5 nM
EC50 [3]: 0.9 nM

B5: FGF21ΔH-K56R-K59-K69R-K122R: FGF21 lysine mutant, SEQ ID NO:19 (protein, listed as Homo sapiens)
chain: PIPDSSPLLQFGGQVRQRYLYTDDAQQTEAHLEIREDGTVGGAADQSPESLLQLRALKPGVIQILGVRTSRFLCQRPDGALYGSLHFDPEACSFRELLLEDGYNVYQSEAHGLPLHLPGNRSPHRDPAPRGPARFLPLPGLPPAPLEPPGILAPQPPDVGSSDPLSMVGPSQGRSPSYAS
EC50 ([5]; 3T3-L1 adipocytes, 24 hrs): 0.9 nM
EC50 [3]: 0.6 nM

B6: FGF21ΔH-L86C: FGF21 cysteine mutant, SEQ ID NO:14 (protein, listed as Homo sapiens)
chain: PIPDSSPLLQFGGQVRQRYLYTDDAQQTEAHLEIREDGTVGGAADQSPESLLQLKALKPGVIQILGVKTSRFLCQRPDGALYGSCHFDPEACSFRELLLEDGYNVYQSEAHGLPLHLPGNKSPHRDPAPRGPARFLPLPGLPPAPLEPPGILAPQPPDVGSSDPLSMVGPSQGRSPSYAS
EC50 ([5]; unconjugated protein, n in brackets): 62 nM

B7: FGF21ΔH-K56R-K59R-K69-K122R: FGF21 lysine mutant, SEQ ID NO:20 (protein, listed as Homo sapiens)
chain: PIPDSSPLLQFGGQVRQRYLYTDDAQQTEAHLEIREDGTVGGAADQSPESLLQLRALRPGVIQILGVKTSRFLCQRPDGALYGSLHFDPEACSFRELLLEDGYNVYQSEAHGLPLHLPGNRSPHRDPAPRGPARFLPLPGLPPAPLEPPGILAPQPPDVGSSDPLSMVGPSQGRSPSYAS
EC50 ([5]; 3T3-L1 adipocytes, 24 hrs): 5.2 nM
EC50 [3]: 1.3 nM
